Source: patent US20110250165A1 (Dana-Farber, published 2011)

Tests used:
[1] = target: T1, human CXCR4 (wild type) (human, UniProt P61073 1-352); test: flow cytometry, scFv-Fc on transfected 293T cells, FITC anti-human IgG
T1 construct: whole, on cells; also called wtCXCR4
Procedure: (§1) Epitope mapping experiments were performed to determine the binding sites for the anti-CXCR4 antibodies of the invention. (See Example 5. infra). […] Analysis was performed using a flow cytometer. Binding activity was measured by MFI on total cells gated. The following formula was used to calculate the reactivity:reactivity to each clone=(MFI of chimeric receptor/MFI of wild type CXCR4)×100%.
(§2) Thirty six hours after transfection, the cells were harvested. […] The cells were then washed two times with 0.5% BSA/PBS/0.02% NaN3.
(§3) Next, FITC-labeled secondary antibodies were added to the cells and were allowed to incubate at 4° C. for 30 minutes. The cells were then washed again two times with 0.5% BSA/PBS/0.02% NaN3. Following the second wash, FACS analysis was performed.

[2] = target: T2, CXCR2 (UniProt P25025 1-360, limits assumed); test: as above
T2 construct: whole, on cells; also called 2222
T2 sequence (looked up): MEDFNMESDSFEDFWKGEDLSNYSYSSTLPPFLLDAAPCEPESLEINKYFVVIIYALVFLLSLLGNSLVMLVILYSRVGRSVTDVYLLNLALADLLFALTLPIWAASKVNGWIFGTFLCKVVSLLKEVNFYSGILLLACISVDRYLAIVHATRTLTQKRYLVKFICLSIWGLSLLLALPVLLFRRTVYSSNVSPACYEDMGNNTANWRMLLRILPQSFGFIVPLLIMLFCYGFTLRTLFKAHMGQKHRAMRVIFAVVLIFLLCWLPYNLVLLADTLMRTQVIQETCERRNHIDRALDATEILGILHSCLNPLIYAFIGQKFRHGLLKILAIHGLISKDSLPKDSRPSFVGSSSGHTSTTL
Procedure: as §1, §2, §3

[3] = target: Δ-X4; test: as above
Procedure: as §1, §2, §3

[4] = target: T3, 2444b CXCR2/CXCR4 chimera (human, UniProt P25025 1-48; P61073 39-352, limits assumed); test: as above
Procedure: as §1, §2, §3

[5] = target: 4442 CXCR2/CXCR4 chimera; test: as above
Procedure: as §1, §2, §3

[6] = target: 2442 CXCR2/CXCR4 chimera; test: as above
Procedure: as §1, §2, §3

[7] = target: 2242 CXCR2/CXCR4 chimera; test: as above
Procedure: as §1, §2, §3

[8] = target: T4, rhesus macaque monkey CXCR4 (rhesus macaque, UniProt P79394 1-352); test: as above
T4 construct: whole, on cells
T4 sequence (P79394 whole entry): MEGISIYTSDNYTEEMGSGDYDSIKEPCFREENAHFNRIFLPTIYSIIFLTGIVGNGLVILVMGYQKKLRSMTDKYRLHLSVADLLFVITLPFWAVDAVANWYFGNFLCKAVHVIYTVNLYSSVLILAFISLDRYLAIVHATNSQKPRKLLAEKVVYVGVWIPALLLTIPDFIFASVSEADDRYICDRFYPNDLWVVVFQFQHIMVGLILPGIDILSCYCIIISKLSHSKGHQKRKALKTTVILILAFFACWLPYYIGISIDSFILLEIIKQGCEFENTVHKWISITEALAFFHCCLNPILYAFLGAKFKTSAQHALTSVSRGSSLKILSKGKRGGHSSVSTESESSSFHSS
Procedure: as §1, §2, §3

[9] = target: T5, mouse CXCR4 (mouse, UniProt P70658 1-359); test: as above
T5 construct: whole, on cells; also called mice CXCR4
T5 sequence (P70658 whole entry): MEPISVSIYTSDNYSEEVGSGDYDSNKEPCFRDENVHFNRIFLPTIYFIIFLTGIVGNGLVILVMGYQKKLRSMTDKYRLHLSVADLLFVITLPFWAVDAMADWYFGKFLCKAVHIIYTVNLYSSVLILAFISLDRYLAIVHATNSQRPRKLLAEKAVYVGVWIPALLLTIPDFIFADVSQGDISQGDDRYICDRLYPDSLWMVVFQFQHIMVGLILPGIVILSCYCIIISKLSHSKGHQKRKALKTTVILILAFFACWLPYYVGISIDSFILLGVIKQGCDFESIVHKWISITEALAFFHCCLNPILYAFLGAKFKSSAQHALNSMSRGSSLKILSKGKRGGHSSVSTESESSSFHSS
Procedure: as §1, §2, §3

[10] = target: T1, human CXCR4 (wild type); test: FACS on 293T cells expressing CXCR4 variants
[11] = target: T3, 2444b CXCR2/CXCR4 chimera; test: FACS on 293T cells expressing CXCR4 variants
[12] = target: 4442 CXCR2/CXCR4 chimera; test: FACS on 293T cells expressing CXCR4 variants
[13] = target: 2442 CXCR2/CXCR4 chimera; test: FACS on 293T cells expressing CXCR4 variants

T1 sequence (P61073 whole entry): as the sequence (P79394 whole entry) above, with I24M, H35N, R38K, K146R, S176N, D214V counted along it

| Binder | reactivity (MFI of chimeric receptor/MFI of wild type CXCR4 x 100%) [1] | reactivity (MFI of chimeric receptor/MFI of wild type CXCR4 x 100%) [2] | reactivity (MFI of chimeric receptor/MFI of wild type CXCR4 x 100%) [3] | reactivity (MFI of chimeric receptor/MFI of wild type CXCR4 x 100%) [4] | reactivity (MFI of chimeric receptor/MFI of wild type CXCR4 x 100%) [5] | reactivity (MFI of chimeric receptor/MFI of wild type CXCR4 x 100%) [6] | reactivity (MFI of chimeric receptor/MFI of wild type CXCR4 x 100%) [7] | reactivity (MFI of chimeric receptor/MFI of wild type CXCR4 x 100%) [8] | reactivity (MFI of chimeric receptor/MFI of wild type CXCR4 x 100%) [9] | binding (+%) [10] | binding (+%) [11] | binding (+%) [12] | binding (+%) [13] |
| --- | --- | --- | --- | --- | --- | --- | --- | --- | --- | --- | --- | --- | --- |
| 19-Fc (Fc fusion, scFv-Fc fusion; also called X19; scFv-Fc 19) VH: QVQLVQSGGGVVQPGRSLRLSCAASGFTFSSYPMHWVRQAPGKGLEWMTVISSDGRNKYYPDSVKGRFTISRDNSKNTLYLQMNSLRPEDTAVYYCARGGYHDFWSGPDYWGQGTLVTVSS VL: EIVLTQSPATLSVSPGERATLSCRASQSVNTNLAWYQQKPGQAPRLLIYGASSRATGIPDRFSGSGSGTDFTLTISRLEPEDFAVYYCQHYGSSPLTFGGGTKLEIK | 100% | 7.5% | 11% | 8.5% | 5.3% | 7.1% | 5.2% | 35.1% | 5.6% | – | – | – | – |
| 48-IgG1 (antibody, V domains shown, Bivalent whole human IgG1, VH and VL subcloned into human IgG1 lambda light chain expression vector TCAE6; also called mAb 48) VH: QVQLVQSGGGVVLPGRSLRLSCVASGFTFRRYGMHWVRQAPGKGLEWVSLISYDGSKTFYGESVKGRFTISRDNSKNTLYLQMNSLRAEDTAVYYCARATVTTDGYYYMDVWGKGTTVTVSS VL: not shown | – | – | – | – | – | – | – | – | – | 100% | -2.3% | 91.9% | -2.9% |
| 33-IgG1 (antibody, V domains shown, Bivalent whole human IgG1, VH and VL subcloned into human IgG1 lambda light chain expression vector TCAE6; also called mAb 33) VH: QVTLKESGGGVVQPGRSLRLSCAASGFTFTNYGLHWVRQAPGKGLEWVAVISHDGTKKYYADSVKGRFTISRDSSENTLYLQMNSLRPEDSALYYCARDGGYCSGGRCYSYGMDVWGQGTTVTVSS VL: QSVLTQPPSASGTPGQRVTISCSGSRSNIGSNTVNWYQQLPGTAPKLLIYTNNQRPSGVPDRFSGSKSGTSASLAITGLQAEDEADYYCLSFDSSLTSYVFGTGTKVTVLG | – | – | – | – | – | – | – | – | – | 100% | 1% | 99.5% | 1.5% |
| 18-Fc (Fc fusion, scFv-Fc fusion; also called X18; scFv-Fc 18) VH: QVQLVQSGAEVKKPGASVKVSCKASGYTFTSYGISWVRQAPGQGLEWMGWISAYNGNTNYAQKLQGRVTMTTDTSTSTAYMELRSLRSDDTAVYYCARDTPGIAARRYYYYGMDVWGQGTTVTVSS VL: SSELTQDPAVSVALGQTVRITCQGDSLRKFFASWYQQKPGQAPVLVIYGKNSRPSGIPDRFSGSNSRNTASLTITGAQAEDEGDYYCNSRDSRDNHQVFGAGTKVTVL | 100% | 2% | 48.1% | 28.5% | 35.2% | 37.8% | 10.1% | 89.1% | 13.1% | – | – | – | – |
